# Measurements taken from the supplement of paper PMC12764529.
# ± gives the half width of the 95% confidence interval.
# Assay: folding stability dG unfold (combined trypsin and chymotrypsin); higher = more stable
# In short: (§1)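 Designed mini-proteins (under 80 residues, no cysteine) in a PA-tagged cDNA display construct were digested with trypsin and chymotrypsin. Each protease was used at 11 concentrations (threefold dilutions) plus a no-protease condition, followed by sequencing. K50 was inferred by Bayesian fitting of sequencing counts, and unfolding free energy was derived against a sequence-predicted unfolded-state K50 and a shared folded-state K50, per protease or combined. Only designs with AlphaFold2 dimer inter-PAE above 15 were kept.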
row,Sequence,folding stability dG unfold [kcal/mol]
1,SPLKPNDIRPIKFTSPIRNPDNGRPFRIKVEIWVMPEDPMVIIKDEIEPPNGRTREHTFWIPPGQKIEIPSA [r9_88_TrROS],0.295 ± 0.3
2,SMRKVKRKVTLEITIKVPESVLKPIPDADYYTYPFDDKLVKPDAVIPRTVTITGPYTEEEVEKLVKEILSSA [r9_165_JUSTAS],0.249 ± 0.25
3,SAGGSAGGSPNPKVVPFTFPVVIPDEDGHPYLVNVTVTAIPDTDTYYARITYPDGRVEDFVLASAGGSAGGS [r12_286_TrMRF],2.33 ± 0.04
4,SAMLEEVEERAREIAERLREEYPDVEEFTVELELPLPDGRFLRVTVTIRRERDDEGDTFEVEVDVEEVDSAG [r14_788_TrMRF],4.46 ± 0.095
5,SAGGGMSTYTITINIVIDPKEKKVPKPPLKDPFKLPPLKTIPITITAETSDPAVAAALEKAVKEALGLSAGG [r13_35_JUSTAS],2 ± 0.069
6,SAGGSAGRSRPLRLRFENPENGLRTEVELRVFEIGDYRVILLRERTYHPDTPGLSERDLLILLPPESAGGSA [r15_960_TrMRF],3.35 ± 0.1
7,SAGGMEIKEVKYDPEEGYLYIVVAAPPSVSPSEVVPAVVRAARELTGAEVEVEVDPETGYVVAKVPVSAGGS [r8_314_TrMRF],1.77 ± 0.089
8,SAGGSTVKTITLEFTRDPSTGAITEAEAEIERLKNDPNWEVTDPTITPLPDGTVKVPAKVKIPSNANLSAGG [r13_428_JUSTAS],0.075 ± 0.23
9,SKPPSDPGSIEFSFPDSSNVTVTIPVPLPPNTTVSISLSDGKSYTVPGGTTFTFTLPPGKPFTVTVNIRSSA [r9_79_JUSTAS],4.23 ± 0.2

# Assay: folding stability dG unfold from chymotrypsin proteolysis; higher = more stable
# In short: as §1
row,Sequence,folding stability dG unfold [kcal/mol]
1,SAGMKYTAEVKVKEKDKEIDVTVSDDATFTDPEGKETTFKIGSEEELKKALEEIFPEKYPYEILSVKVLSAG [r14_41_JUSTAS],0.156 ± 0.18
2,SAGGSAGGSSPVKQVTEVKDPHSSLPLLRTTETLVLPNGEVVTKVKFIDTKTGKSTEEIFTIPSAGGSAGGS [r20_229_JUSTAS],1.02 ± 0.13
3,SAGDADEDPVLVVFVRTEERPLVVVRRVEPDEDPEEVAKELAAEIREKLGPDVEVFVEMVRREDAEKLFSAG [r5_583_TrMRF],2.44 ± 0.039
4,SAGGSAGGSAGGDIFIPPNGKLVVIENLPSIEEALEILKNFPNLKPFIDPKTKKIIVPVSAGGSAGGSAGGS [r10_792_TrMRF],-0.338 ± 0.045
5,SAGGKKTFKVTLTLELKVERDEETGELKTETLTLTLTIEAESEEEAEKALKELLEKLELSPELKKALSAGGS [r16_40_TrROS_Hall],3.76 ± 0.064
6,SAGGSAGGSASPQVVEVLSTVPLPGSNIVIEKTSDASGNSYVYDPNTGKWFSPEEAKKLLSSAGGSAGGSAG [r3_206_JUSTAS],1.73 ± 0.077
7,SAGGSAGGKEVYKIKVKNAEIVDFDEETGELTIKLKETGKEIKIPLKAIKKIEITDDYIYIYVESAGGSAGG [r6_313_TrROS_Hall],4.21 ± 0.13
8,PNFKIDIEIIKAEEVPPRPTDDGKPQPVRRIHIRIEVKGPPDQPPELANNIVEEIMAELQELGLPVHIHVWS [r1_305_TrROS],1.91 ± 0.075
9,SPLKPNDIRPIKFTSPIRNPDNGRPFRIKVEIWVMPEDPMVIIKDEIEPPNGRTREHTFWIPPGQKIEIPSA [r9_88_TrROS],0.358 ± 0.33
10,SMRKVKRKVTLEITIKVPESVLKPIPDADYYTYPFDDKLVKPDAVIPRTVTITGPYTEEEVEKLVKEILSSA [r9_165_JUSTAS],-0.613 ± 0.48
11,SAGGSAGGSPNPKVVPFTFPVVIPDEDGHPYLVNVTVTAIPDTDTYYARITYPDGRVEDFVLASAGGSAGGS [r12_286_TrMRF],2.494 ± 0.015
12,SAMLEEVEERAREIAERLREEYPDVEEFTVELELPLPDGRFLRVTVTIRRERDDEGDTFEVEVDVEEVDSAG [r14_788_TrMRF],4.91 ± 0.13
13,SAGGGMSTYTITINIVIDPKEKKVPKPPLKDPFKLPPLKTIPITITAETSDPAVAAALEKAVKEALGLSAGG [r13_35_JUSTAS],2.19 ± 0.054
14,SAGGSAGRSRPLRLRFENPENGLRTEVELRVFEIGDYRVILLRERTYHPDTPGLSERDLLILLPPESAGGSA [r15_960_TrMRF],3.508 ± 0.023
15,SAGGMEIKEVKYDPEEGYLYIVVAAPPSVSPSEVVPAVVRAARELTGAEVEVEVDPETGYVVAKVPVSAGGS [r8_314_TrMRF],1.92 ± 0.043
16,SAGGSTVKTITLEFTRDPSTGAITEAEAEIERLKNDPNWEVTDPTITPLPDGTVKVPAKVKIPSNANLSAGG [r13_428_JUSTAS],0.12 ± 0.27
17,SKPPSDPGSIEFSFPDSSNVTVTIPVPLPPNTTVSISLSDGKSYTVPGGTTFTFTLPPGKPFTVTVNIRSSA [r9_79_JUSTAS],4.47 ± 0.061
